Data as given in paper PMC9789309.

Target: ACE2, membrane-anchored, endogenously expressed on VeroE6 cells (African green monkey (endogenous in VeroE6))
Assay: single-molecule force spectroscopy (AFM)

Substance “SARS-CoV-2 Spike receptor binding domain, Wuhan reference strain, monomer (from UniProt P0DTC2 319-541) (domain or fragment)” has a Kd of 3.2 nM, a koff of 0.00032 s⁻¹ and a kon of 100000 M⁻¹ s⁻¹.
